Results reported in patent US20210269496A1 (PANDION OPERATIONS, published 2021).

T1: CD25 (Homo sapiens (Human), UniProt P01589 22-240)
T1 construct: also called IL-2R alpha chain
T1 sequence: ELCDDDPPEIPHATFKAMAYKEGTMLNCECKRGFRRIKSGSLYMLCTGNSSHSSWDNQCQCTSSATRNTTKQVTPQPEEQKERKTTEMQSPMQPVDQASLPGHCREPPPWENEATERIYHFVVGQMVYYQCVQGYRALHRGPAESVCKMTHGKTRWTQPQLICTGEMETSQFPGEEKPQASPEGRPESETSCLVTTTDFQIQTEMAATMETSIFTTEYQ


Biological target: mouse PD-1 on primary mouse T cell blasts (mouse) (UniProt Q02242)
Sequence (Q02242 25-288): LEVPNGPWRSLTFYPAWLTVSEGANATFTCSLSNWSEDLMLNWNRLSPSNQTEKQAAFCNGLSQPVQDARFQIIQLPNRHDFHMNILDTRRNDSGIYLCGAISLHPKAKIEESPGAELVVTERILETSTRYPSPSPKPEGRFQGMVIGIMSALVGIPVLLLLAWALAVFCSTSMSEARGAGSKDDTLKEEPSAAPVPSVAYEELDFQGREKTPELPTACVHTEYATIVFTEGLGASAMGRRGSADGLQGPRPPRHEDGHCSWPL
Test: cell-based or functional assay

Mouse agonist-CTG: IC50 | Molecule
2.4 nM | PD-L1 (reference in the table of Example 36) (ligand)

Biological target: T1, CD25
Test: ELISA, CD25 coated at 0.5 µg/mL, detection with biotinylated anti-IL-2 polyclonal
Procedure: An immunosorbent plate was coated with CD25 at a concentration of 0.5 μg/mL in PBS pH 7.4, 75 μL/well, and incubated overnight at 4° C. Wells were washed with PBS pH 7.4 containing 0.05% Tween-20 (wash buffer) three times, and then blocked with 200 μL/well 1% BSA in PBS pH 7.4 (block buffer) for two hours at room temperature. After three washes with wash buffer IL-2 muteins SEQ ID NO: 53, SEQ ID NO: 54, SEQ ID NO: 55, SEQ ID NO: 56 were diluted to eleven-two fold serial dilution in PBS containing 1% BSA and 0.05% Tween-20 (assay buffer) with 2 nM being the highest concentration. The diluted material was added to the CD25 coated plate at 75 μL/well for 1 hour at room temperature. After three washes with wash buffer, a goat biotinylated anti-IL-2 polyclonal antibody, diluted to 0.05 μg/mL in assay buffer, was added to the plate at 75 μL/well for 1 hour at room temperature. After three washes with wash buffer high sensitivity streptavidin HRP diluted in assay buffer at 1:5000 was added to the plate at 75 μL/well for 15 minutes at room temperature. After three washes with wash buffer and 1 wash with wash buffer (with no Tween-20), the assay was developed with TMB, and stopped with 1N HCL. OD 450 nm was measured. The experiment included appropriate controls for non-specific binding of the molecules to the plate/block in the absence of CD25. […] Additionally, there was no detection of any compound at any concentration tested, when CD25 was not present on the plate surface, indicating none of the test compounds were interacting non-specifically with the plate surface. Thus, the muteins of Example 19 can bind to CD25.

Molecule | EC50
human IL-2 mutein polypeptide fused N-terminally to human IgG1 Fc domain (SEQ ID NO: 57) (Fc fusion, also called IL-2 N88D V69A, Q74P-G4Sx4-Fc) APTSSSTKKTQLQLEHLLLDLQMILNGINNYKNPKLTRMLTFKFYMPKKATELKHLQCLEEELKPLEEALNLAPSKNFHLRPRDLISDINVIVLELKGSETTFMCEYADETATIVEFLNRWITFSQSIISTLTGGGGSGGGGSGGGGSGGGGSDKTHTCPPCPAPEAAGAPSVFLFPPKPKDTLMISRTPEVTCVVVDVSHEDPEVKFNWYVDGVEVHNAKTKPREEQYNSTYRVVSVLTVLHQDWLNGKEYKCKVSNKALPAPIEKTISKAKGQPREPQVYTLPPSREEMTKNQVSLTCLVKGFYPSDIAVEWESNGQPENNYKTTPPVLDSDGSFFLYSKLTVDKSRWQQGNVFSCSVMHEALHNHYTQKSLSLSPG | < 1 nM
SEQ ID NO 55 (Fc fusion, also called IL-2 L80I N88D V69A, C125S Q74P-G4Sx4-Fc) APTSSSTKKTQLQLEHLLLDLQMILNGINNYKNPKLTRMLTFKFYMPKKATELKHLQCLEEELKPLEEALNLAPSKNFHIRPRDLISDINVIVLELKGSETTFMCEYADETATIVEFLNRWITFSQSIISTLTGGGGSGGGGSGGGGSGGGGSDKTHTCPPCPAPEAAGAPSVFLFPPKPKDTLMISRTPEVTCVVVDVSHEDPEVKFNWYVDGVEVHNAKTKPREEQYNSTYRVVSVLTVLHQDWLNGKEYKCKVSNKALPAPIEKTISKAKGQPREPQVYTLPPSREEMTKNQVSLTCLVKGFYPSDIAVEWESNGQPENNYKTTPPVLDSDGSFFLYSKLTVDKSRWQQGNVFSCSVMHEALHNHYTQKSLSLSPG | < 1 nM

The next lines start with the values.

EC50 | Molecule
< 1 nM | SEQ ID NO 53 (Fc fusion, also called IL-2 L53I N88D V69A, Q74P,C125S-G4Sx4-Fc) APTSSSTKKTQLQLEHLLLDLQMILNGINNYKNPKLTRMLTFKFYMPKKATEIKHLQCLEEELKPLEEALNLAPSKNFHLRPRDLISDINVIVLELKGSETTFMCEYADETATIVEFLNRWITFSQSIISTLTGGGGSGGGGSGGGGSGGGGSDKTHTCPPCPAPEAAGAPSVFLFPPKPKDTLMISRTPEVTCVVVDVSHEDPEVKFNWYVDGVEVHNAKTKPREEQYNSTYRVVSVLTVLHQDWLNGKEYKCKVSNKALPAPIEKTISKAKGQPREPQVYTLPPSREEMTKNQVSLTCLVKGFYPSDIAVEWESNGQPENNYKTTPPVLDSDGSFFLYSKLTVDKSRWQQGNVFSCSVMHEALHNHYTQKSLSLSPG
< 1 nM | SEQ ID NO 54 (Fc fusion, also called IL-2 L56I N88D V69A, Q74P, C125S-G4Sx4-Fc) APTSSSTKKTQLQLEHLLLDLQMILNGINNYKNPKLTRMLTFKFYMPKKATELKHIQCLEEELKPLEEALNLAPSKNFHLRPRDLISDINVIVLELKGSETTFMCEYADETATIVEFLNRWITFSQSIISTLTGGGGSGGGGSGGGGSGGGGSDKTHTCPPCPAPEAAGAPSVFLFPPKPKDTLMISRTPEVTCVVVDVSHEDPEVKFNWYVDGVEVHNAKTKPREEQYNSTYRVVSVLTVLHQDWLNGKEYKCKVSNKALPAPIEKTISKAKGQPREPQVYTLPPSREEMTKNQVSLTCLVKGFYPSDIAVEWESNGQPENNYKTTPPVLDSDGSFFLYSKLTVDKSRWQQGNVFSCSVMHEALHNHYTQKSLSLSPG
< 1 nM | SEQ ID NO 56 (Fc fusion, also called IL-2 L118I N88D V69A, Q74P, C125S-G4Sx4-Fc) APTSSSTKKTQLQLEHLLLDLQMILNGINNYKNPKLTRMLTFKFYMPKKATELKHLQCLEEELKPLEEALNLAPSKNFHLRPRDLISDINVIVLELKGSETTFMCEYADETATIVEFINRWITFSQSIISTLTGGGGSGGGGSGGGGSGGGGSDKTHTCPPCPAPEAAGAPSVFLFPPKPKDTLMISRTPEVTCVVVDVSHEDPEVKFNWYVDGVEVHNAKTKPREEQYNSTYRVVSVLTVLHQDWLNGKEYKCKVSNKALPAPIEKTISKAKGQPREPQVYTLPPSREEMTKNQVSLTCLVKGFYPSDIAVEWESNGQPENNYKTTPPVLDSDGSFFLYSKLTVDKSRWQQGNVFSCSVMHEALHNHYTQKSLSLSPG
